According to patent publication US20240199740A1 (Ablynx, published 2024):

Columns and labels:
[1] = target: human CD123 expressed on cells (human, UniProt P26951 19-378); test: cell-based or functional assay
[2] = target: T1, recombinant human CD123 protein (R&D Systems, 301-R3/CF) (human, UniProt P26951 19-305); test: SPR (ProteOn XPR36), CD123 immobilized
T1 construct: Bought recombinant His-tagged extracellular domain of human CD123; also called recombinant CD123; in house biotinylated-CD123 recombinant protein; not shown: His tag of the bought protein
T1 sequence: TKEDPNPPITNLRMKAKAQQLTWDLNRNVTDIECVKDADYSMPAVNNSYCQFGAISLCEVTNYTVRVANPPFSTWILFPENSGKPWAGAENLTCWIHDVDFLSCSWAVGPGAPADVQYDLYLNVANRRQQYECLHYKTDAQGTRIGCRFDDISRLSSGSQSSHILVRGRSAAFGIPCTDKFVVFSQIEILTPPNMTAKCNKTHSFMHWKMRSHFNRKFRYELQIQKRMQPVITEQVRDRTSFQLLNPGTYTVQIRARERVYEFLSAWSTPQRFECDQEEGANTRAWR

[3] = target: human CD123 (human, UniProt P26951 19-378); test: cell-based or functional assay

B1: T017000134 (bispecific antibody)
chain: VQLVESGGGLVQAGGSLRLSCAASGITSKINDMGWYRQTPGNYREWVASITATGTTNYRDSVKGRFTISRDNAKSTVYLQMNSLKPEDTTVYYCNTFPPISNFWGQGTLVTVSSGGGGSGGGGSGGGGSGGGGSGGGGSGGGGSGGGGSEVQLVESGGGLVQPGGSLRLSCVASGDVHKINFLGWYRQAPGKEREKVAHISIGDQTDYADSAKGRFTISRDESKNMVYLQMNSLKPEDTAVYFCRAFSRIYPYDYWGQGTLVTVSSGGGGSGGGGSGGGGSGGGGSGGGGSGGGGSGGGGSEVQLVESGGGLVQAGGPLRLSCAASGRTFSSYVMGWFRQAPGKEREFVAAIYWSNGKTQYTDSVKGRFTISGDNAKNTVYLQMNSLNPEDTAVYYCVADKDETGFRTLPIAYDYWGQGTLVTVSSA
- % lysis, redirected human T cell mediated killing of MOLM-13 cells, flow cytometry, E:T 10:1 [1]: 9%
- EC50 (M), redirected human T cell mediated killing of MOLM-13 cells, flow cytometry, E:T 10:1 [1]: 3e-10 M

B2: T017000113 (bispecific antibody)
chain: EVQLVESGGGLVQAGGPLRLSCAASGRTFSSYVMGWFRQAPGKEREFVAAIYWSNGKTQYTDSVKGRFTISGDNAKNTVYLQMNSLNPEDTAVYYCVADKDETGFRTLPIAYDYWGQGTLVTVSSGGGGSGGGGSGGGGSGGGGSGGGGSGGGGSGGGGSEVQLVESGGGSVQAGGSLRLSCAASGYTIGPYCMGWFRQAPGKEREGVAAINMGGGITYYADSVKGRFTISQDNAKNTVYLLMNSLEPEDTAIYYCAADSTIYASYYECGHGLSTGGYGYDSWGQGTLVTVSSGGGGSGGGGSGGGGSGGGGSGGGGSGGGGSGGGGSEVQLVESGGGLVQPGGSLRLSCVASGDVHKINFLGWYRQAPGKEREKVAHISIGDQTDYADSAKGRFTISRDESKNMVYLQMNSLKPEDTAVYFCRAFSRIYPYDYWGQGTLVTVSS
notes: Multispecific Nanobody polypeptide expressed in Pichia; also called A0110055F03-35GS-cAbLys3(D1E,Q5V,A6E,Q108L)-35GS-T0170056G05-FLAG3-HIS6; not shown: C-terminal FLAG3-HIS6 tag
- Kd [2]: 160000 pM
- koff [2]: 0.0032 s⁻¹
- kon [2]: 20000 M⁻¹ s⁻¹

B3: T017000128 (bispecific antibody)
chain: DVQLVESGGGLVQPGGSLRLSCVASGDVHKINFLGWYRQAPGKEREKVAHISIGDQTDYADSAKGRFTISRDESKNMVYLQMNSLKPEDTAVYFCRAFSRIYPYDYWGQGTLVTVSSGGGGSGGGGSGGGGSGGGGSGGGGSGGGGSGGGGSEVQLVESGGGLVQAGGSLRLSCAASGITSKINDMGWYRQTPGNYREWVASITATGTTNYRDSVKGRFTISRDNAKSTVYLQMNSLKPEDTTVYYCNTFPPISNFWGQGTLVTVSSA
- % lysis, redirected cynomolgus T cell mediated killing of KG1a cells, flow cytometry, E:T 10:1 [3]: 32%
- % lysis, redirected human T cell mediated killing of KG1a cells, flow cytometry, E:T 10:1 [3]: 55%
- EC50 (M), redirected cynomolgus T cell mediated killing of KG1a cells, flow cytometry, E:T 10:1 [3]: 2.8e-10 M
- EC50 (M), redirected human T cell mediated killing of KG1a cells, flow cytometry, E:T 10:1 [3]: 3.1e-10 M
